In US20090274696A1, “METHODS FOR TREATING INFLAMMATION” (WYETH, priority 2008, published 2009):

What was measured:
[1] = system: tracheal smooth muscle (TSM) of mouse tracheal rings; assay: ISO-induced relaxation of CCh-contracted tracheal rings; type: cell-based; settings: normalized to 200 μM papaverine, PBS 46.29±2.85, n=6
Description: (§1) Experimental animals were sacrificed by CO2 asphyxiation. Tracheas were surgically excised and cleaned of adherent connective tissue. Each trachea was sectioned into rings 3-4 mm in length and cultured in DMEM containing 1.0 M HEPES, 1.0 M NaOH, 5% of heat-inactivated FBS (Hy-Clone, Logan, Utah), 0.2M glutamine, 1.0 M CaCl2, 2.5 μg/ml fungizone, 5 μg/mL insulin, 100 U/mL penicillin and 100 μg/mL streptomycin) (DMEM-5%) for 24 hours. For in vitro experiments, the tracheal rings were cultured in DMEM in the absence and presence of either 10 or 100 nM recombinant FIZZ1 (Leinco Technologies, USA) for 24 hours.
(§2) Trachea were supported longitudinally by a plexiglas rod with a stainless steel pin into the base of a double-jacketed, glass organ bath filled with 10 mL of Krebs-Henseleit (K-H) solution (37° C.) of the following composition: 118 mM NaCl; 4.7 mM KCl; 1.2 mM KH2PO4; 11.1 mM Dextrose; 1.2 mM MgSO4; 2.8 mM CaCl2; and 25 mM NaHCO3. The solution was maintained at a pH of 7.40-7.45 and continuously gassed with a mixture of 5% CO2 and […] for the duration of each experiment. […] Initial tensions of TSM were set at approximately 0.5 g and maintained for 1 hour. Agonists were given after a steady state of tension had been reached.
[CCh]-response curves at the doses ranging from 3×10^−8 to 10^−5 M were completed in tracheal rings in absence and presence of either FIZZ1 or LPS (0.1 ng/mL). Concentrations of agonist were increased only when force responses to the previous concentration had stabilized. To examine TSM relaxant responses to isoprenaline (ISO), tracheal rings were first contracted by an addition of 1.0 μM CCh (Sigma, USA). Once the contraction had stabilized, ISO (Sigma, USA) was introduced into each bath at increasing concentrations (3×10^−8-10^−5 M). […]
At the end of each force measurement experiment, tracheas were blotted on a gauze pad and weighted. Results were calculated as milligram of tension per milligram of TSM weight (mg/mg) and expressed as an individual percentage (%) of 10 μM CCh- or 200 μM papaverine-induced tension response in PBS-treated trachea. […]

BAL cells = assay: Counts of BAL cells in intranasally challenged mice; type: in vivo, mouse; settings: intranasal once a day×5 days, 100 nM rFIZZ1 or 0.1 ng/ml LPS; vs PBS-treated mice
Description: For some experiments, ex vivo TSM tensions of fresh tracheal rings and BAL cell counts were measured at 24 hours after the last treatment of mice receiving an intranasal dose of either PBS, 0.1 ng/m: LPS or 100 nM rFIZZ1 (once a day×5 days).
PBS- and OA-treated mice were sacrificed and their airways lavaged once with 1.0 mL of PBS via tracheal cannulation. An equal volume of BAL from each mouse was collected and centrifuged (1200 rpm, 5 min). Total BAL cells were counted using a hemocytometer. BAL cells ([…]) collected from each sample were applied to a glass slide using a cytospin (800 rpm, 8 min) and then the slide was stained with Hema 3 Stain Set (Fisher Scientific) for the differential count of cells. The relative proportion of different cells counted from 300 cells/slide was factored to the number of total BAL cells collected in each group.

[2] = system: tracheal smooth muscle (TSM) of mouse tracheal rings; assay: CCh-evoked force generation in cultured tracheal rings; type: cell-based; settings: for Maximal tensions (%), CCh-evoked force generation: PBS-treated rings 100±8.39; for TSM sensitivity to CCh, LogEC50: Mean ± SE, N=6
Description: as §1, §2
[CCh]-response curves at the doses ranging from 3×10^−8 to 10^−5 M were completed in tracheal rings in absence and presence of either FIZZ1 or LPS (0.1 ng/mL). Concentrations of agonist were increased only when force responses to the previous concentration had stabilized. To examine TSM relaxant responses to isoprenaline (ISO), tracheal rings were first contracted by an addition of 1.0 μM CCh (Sigma, USA). Once the contraction had stabilized, ISO (Sigma, USA) was introduced into each bath at increasing concentrations (3×10^−8-10^−5 M). […] In an additional experiment, the effect of FIZZ1 protein on the CCh-mediated force response was verified using 100 nM heat-inactivated FIZZ1 (natural and recombinant FIZZ1 solution heated at 70° C. for 60 min). Their dose-response curves were obtained as above. Fresh drug solutions such as CCh and ISO were made up on the day of the experiment. Doses of the above agents refer to the final bath concentration.
At the end of each force measurement experiment, tracheas were blotted on a gauze pad and weighted. Results were calculated as milligram of tension per milligram of TSM weight (mg/mg) and expressed as an individual percentage (%) of 10 μM CCh- or 200 μM papaverine-induced tension response in PBS-treated trachea. For the control group, CCh (papaverine)-mediated responses were normalized to the mean value of the maximal responses.

[3] = system: mouse tracheal epithelium cells (MTEC); assay: Nitrite in MTEC supernatants, Griess reaction; type: cell-based; settings: PBS, 0.1 ng/mL LPS or 100 nM rFIZZ1; any measured time point; N=3
Description: MTEC culture was performed by following the protocol of You et al. (“Growth and differentiation of mouse tracheal epithelial cells: selection of a proliferative population,” Am J Physiol Lung Cell Mol Physiol, 2002, 283:L 1315-1321) with minor modification. Briefly, tracheas were incubated in 1.5 mg/mL pronase (Roche Molecular Biochemicals) for 18 h at 4° C. Cells were treated with 0.5 mg/mL crude pancreatic DNase I (Sigma-Aldrich) on ice for 5 min. After incubation in tissue culture plates for 3-4 h in 5% CO2 at 37° C., nonadherent cells were incubated in a plate coated with type I rat tail collagen (BD Biosciences) in modified BEBM (Lonza, Md. USA) containing 10 μg/ml insulin, 5 μg/ml transferrin, 25 ng/ml epidermal growth factor, 5 μg/ml epinephrine and 30 μg/ml bovine pituitary extract, 0.5 nM Hydrocortisone, 25 ng/ml hEGF, 15 nM Triiodothyronine, 0.25 μg/ml Gentamicin/amphotericin-B and 0.01 μM retinoic acid in 5% CO2 at 37° C. […]
Nitric oxide (NO) was examined by measuring an end product, nitrite, using the Griess reaction (Xu et al., “Arginase and autoimmune inflammation in the central nervous system,” Immunology, 2003; 110:141-148). […] Absorbance was read at 540 nm in an automated microplate reader. […]

B1: rFIZZ1: recombinant FIZZ1 (Leinco Technologies), mouse FIZZ1 protein, resistin-like molecule-α (protein, listed as Mus musculus)
chain: MKTTTCSLLICISLLQLMVPVNTDETIEIIVENKVKELLANIPANYPSTVTKTLSCTSVKTMNRWASCPAGMTATGCACGFACGSWEIQSGDTCNCLCLLV
modifications: (1)..(101) Murine FIZZ1 polypeptide
maximal relaxing force (%), ISO-induced ([1]; 10 nM rFIZZ1 pretreatment): 46.52±2.80% | maximal relaxing force (%), ISO-induced ([1]; 100 nM rFIZZ1 pretreatment): 43.38±0.75% | number of BAL cells (BAL cells): increase | Maximal tensions (%), CCh-evoked force generation ([2]; 10 nM rFIZZ1, cultured 24 hours, n=6): 117.21±7.87% | Maximal tensions (%), CCh-evoked force generation ([2]; 100 nM rFIZZ1, cultured 24 hours, n=6): 144.16±15.77% | maximal responses (%) of the tracheal rings, CCh-evoked ([2]; FIG. 4B, 100 nM heat-inactivated or native rFIZZ1, 0.1 ng/mL LPS, PBS 100±4.82, n=6): 135.67±9.02% | TSM sensitivity to CCh, LogEC50 ([2]; trachea treated with FIZZ1 10 nM): −0.96 ± 0.05 μM | TSM sensitivity to CCh, LogEC50 ([2]; trachea treated with FIZZ1 100 nM): −0.99 ± 0.03 μM | changes in nitrite concentration in MTEC supernatants [3]: not obvious
